Source: US20240124597A1 (Bristol-Myers Squibb, published 2024)
Residue numbers refer to the chain shown, from its start. Numbers in names are those of the source. Each block holds one binder with its values, some of them ahead of it.

Experiments:
[1] = target: T1, human-CD40-monomer protein (human, UniProt P25942 21-193, limits assumed); test: SPR, Ab captured on protein A, hCD40 monomer 500 and 50 nM, 1:1 fit; supernatant
T1 construct: Soluble monomer generated in house, used as SPR analyte; also called hCD40; hCD40-monomer
T1 sequence (P25942 21-193 limits assumed): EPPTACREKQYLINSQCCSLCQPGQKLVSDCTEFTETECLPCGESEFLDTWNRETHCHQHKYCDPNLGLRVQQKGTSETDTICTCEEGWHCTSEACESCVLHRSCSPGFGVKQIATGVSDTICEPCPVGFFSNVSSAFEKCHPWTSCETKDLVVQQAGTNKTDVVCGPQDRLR
Summary of the method: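 Antibodies captured on protein A surface; human CD40 monomer injected as analyte at 500 nM and 50 nM. Kinetic data from both concentrations fitted to 1:1 Langmuir model to estimate kinetic and affinity values. Supernatant titers determined by BLI protein A capture against a control antibody standard curve.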

[2] = target: T1, human-CD40-monomer protein; test: SPR, Ab captured on protein A, hCD40 monomer 500 and 50 nM, 1:1 fit; supernatant; sup (supernatant); Vh-hz2 / Vk-hz2
Experimental: Titer analysis was performed using Biolayer Interferometry (BLI) on an Octet RED instrument (Fortebio) by capturing antibodies from supernatant using protein A sensor tips and measuring capture response with respect to a standard curve obtained using a control antibody sample. SPR data were obtained by capturing antibodies on a protein A surface and testing the binding of 500 nM and 50 nM injections of human-CD40 analyte, using a BIAcore™ T200 instrument (GE Healthcare). The kinetic data for the two concentrations of hCD40-monomer were fit to a 1:1 Langmuir model, to yield estimates of the kinetic and affinity values for these interactions, and for comparison of the different molecules.

[3] = target: T2, human CD40 on cells (tonsillar B cells, immature dendritic cells, Ramos-Blue cells) (human, UniProt P25942 21-277); test: cell-based or functional assay
T2 sequence (P25942 21-277 limits assumed): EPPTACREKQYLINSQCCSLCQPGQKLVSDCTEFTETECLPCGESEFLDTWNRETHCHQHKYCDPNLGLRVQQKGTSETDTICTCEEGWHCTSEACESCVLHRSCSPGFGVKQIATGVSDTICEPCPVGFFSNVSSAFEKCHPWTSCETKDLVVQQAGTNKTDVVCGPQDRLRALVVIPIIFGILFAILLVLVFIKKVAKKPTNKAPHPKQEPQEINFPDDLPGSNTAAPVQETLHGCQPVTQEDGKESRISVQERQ

[4] = target: T2, human CD40 on cells (tonsillar B cells, …); test: cell-based or functional assay; remark: listed apart in the source
[5] = target: T3, hCD64 (human, UniProt P12314 16-288, limits assumed); test: SPR, Ab captured on protein A, hCD64-His 10 µM-1.5 nM as analyte
T3 construct: His-tagged; also called hFcγRI
T3 sequence (P12314 16-288 limits assumed): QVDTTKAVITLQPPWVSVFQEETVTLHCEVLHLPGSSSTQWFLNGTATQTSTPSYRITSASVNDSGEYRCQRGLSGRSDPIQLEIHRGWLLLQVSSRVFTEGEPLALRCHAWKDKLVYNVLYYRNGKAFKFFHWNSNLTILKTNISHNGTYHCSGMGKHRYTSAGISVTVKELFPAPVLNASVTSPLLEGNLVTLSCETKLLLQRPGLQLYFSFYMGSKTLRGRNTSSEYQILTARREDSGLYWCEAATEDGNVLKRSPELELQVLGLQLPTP
Experimental: (§1) FcγR binding SPR: FcγR binding can be measured in vitro using purified FcγRs using methods, such as BIAcore™ surface plasmon resonance (SPR). One method tests the binding of purified His-tagged FcγR proteins (FcγR-his) to antibodies that are captured on a sensor surface containing protein A which has been immobilized using standard ethyl(dimethylaminopropyl) carbodiimide (EDC)/N-hydroxysuccinimide (NHS) chemistry with ethanolamine blocking. These experiments are performed on a BIAcore™ T200 instrument (GE Healthcare, Marlborough, MA) at 25° C. For example, samples of purified antibody at 3 μg/ml concentration are first captured on the immobilized protein A surface using a 15 second (s) contact time at 10 μl/min flow rate. This is followed by the binding of purified FcγR-His proteins at various concentrations, such as 10 μM-1.5 nM (2:1 dilution series) or 10 μM-13.7 nM (2:1 dilution series), using 120 s association and dissociation times at a flow rate of 30 μ/min. All steps are performed in a running buffer consisting of 10 mM NaPO₄, 130 mM NaCl, 0.05% p20 (PBS-T) pH 7.1. FcγR proteins tested in these studies include the “high affinity” FcγR CD64 (hFcγRI), as well as the “low affinity” FcγRs CD32a-H131 (FcγRIIa-H131), CD32a-R131 (FcγRIIa-R131), CD32b (FcγRIIb), CD16a-V158 (FcγRIIIa-V158), and CD16a-F158 (FcγRIIIa-F158), which were expressed and purified in house. […]

[6] = target: T1, human-CD40-monomer protein; test: SPR, purified Ab captured on protein A, hCD40 monomer 500-3.9 nM, 25 C, 1:1 Langmuir fit
Experimental: (§2) Based on the sequences, titer, and SPR binding data, antibodies were selected for larger scale expression, purification, and further characterization. SPR analysis using purified antibodies was performed by capturing antibodies on a protein A surface, with binding of a 500-3.9 nM (2:1) dilution series of human-CD40 monomer, at either 25° C. or 37° C. in PBS-T pH 7.1 buffer; the titration data was fit to a 1:1 Langmuir model.
(§3) SPR data are fit to a 1:1 Langmuir model using BIAcore™ T200 evaluation software to obtain values for the association rate constant (ka), dissociation rate constant (kd) and dissociation constant (KD).

[7] = target: T1, human-CD40-monomer protein; test: SPR, purified Ab captured on protein A, hCD40 monomer 500-3.9 nM, 37 C, 1:1 Langmuir fit
Experimental: as §2, §3

[8] = target: T3, hCD64; test: SPR, antibody captured on protein A, His-tagged FcγR as analyte; 1:1 Langmuir fit
Experimental: as §1

[9] = target: T4, hCD32a-H131 (human, UniProt P12318 34-217, limits assumed); test: SPR, antibody captured on protein A, His-tagged FcγR as analyte; 1:1 steady state fit
T4 construct: His-tagged; H131 allotype; also called FcγRIIa-H131
T4 sequence (looked up): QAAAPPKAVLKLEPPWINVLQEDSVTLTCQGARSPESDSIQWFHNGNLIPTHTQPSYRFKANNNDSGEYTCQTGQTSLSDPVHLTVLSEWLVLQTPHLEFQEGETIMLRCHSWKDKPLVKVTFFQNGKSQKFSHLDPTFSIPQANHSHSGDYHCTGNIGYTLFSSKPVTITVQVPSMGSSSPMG
Experimental: (§4) FcγR binding SPR: FcγR binding can be measured in vitro using purified FcγRs using methods, such as BIAcore™ surface plasmon resonance (SPR). One method tests the binding of purified His-tagged FcγR proteins (FcγR-his) to antibodies that are captured on a sensor surface containing protein A which has been immobilized using standard ethyl(dimethylaminopropyl) carbodiimide (EDC)/N-hydroxysuccinimide (NHS) chemistry with ethanolamine blocking. These experiments are performed on a BIAcore™ T200 instrument (GE Healthcare, Marlborough, MA) at 25° C. For example, samples of purified antibody at 3 μg/ml concentration are first captured on the immobilized protein A surface using a 15 second (s) contact time at 10 μl/min flow rate. This is followed by the binding of purified FcγR-His proteins at various concentrations, such as 10 μM-1.5 nM (2:1 dilution series) or 10 μM-13.7 nM (2:1 dilution series), using 120 s association and dissociation times at a flow rate of 30 μ/min. All steps are performed in a running buffer consisting of 10 mM NaPO₄, 130 mM NaCl, 0.05% p20 (PBS-T) pH 7.1. FcγR proteins tested in these studies include the “high affinity” FcγR CD64 (hFcγRI), as well as the “low affinity” FcγRs CD32a-H131 (FcγRIIa-H131), CD32a-R131 (FcγRIIa-R131), CD32b (FcγRIIb), CD16a-V158 (FcγRIIIa-V158), and CD16a-F158 (FcγRIIIa-F158), which were expressed and purified in house. SPR data are fit to either a 1:1 Langmuir model, or a 1:1 steady state model using BIAcore™ T200 evaluation software to obtain values for the association rate constant (ka), dissociation rate constant (kd) and dissociation constant (KD).

[10] = target: T5, hCD32a-R131 (human, UniProt P12318 34-217, limits assumed); test: as above
T5 construct: His-tagged; R131 allotype; also called FcγRIIa-R131
T5 sequence (looked up): T4 sequence (looked up) with H134R
Experimental: as §4

[11] = target: T6, hCD32b (human, UniProt P31994 43-217, limits assumed); test: as above
T6 construct: His-tagged; also called FcγRIIb
T6 sequence (looked up): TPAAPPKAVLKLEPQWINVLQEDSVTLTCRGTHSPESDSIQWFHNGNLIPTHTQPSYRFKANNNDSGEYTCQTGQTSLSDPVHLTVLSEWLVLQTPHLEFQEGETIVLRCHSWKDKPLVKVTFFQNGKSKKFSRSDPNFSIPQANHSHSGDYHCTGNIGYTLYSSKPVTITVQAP
Experimental: as §4

[12] = target: T7, hCD16a-V158 (human, UniProt P08637 17-208); test: as above
T7 construct: His-tagged; V158 allotype; also called FcγRIIIa-V158
T7 sequence (P08637 17-208 F176V limits assumed): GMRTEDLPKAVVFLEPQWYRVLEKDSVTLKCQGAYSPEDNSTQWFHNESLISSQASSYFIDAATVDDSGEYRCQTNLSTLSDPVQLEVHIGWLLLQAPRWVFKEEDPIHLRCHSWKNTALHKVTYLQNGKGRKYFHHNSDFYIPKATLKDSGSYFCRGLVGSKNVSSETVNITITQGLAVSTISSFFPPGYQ
Experimental: as §4

[13] = target: T8, hCD16a-F158 (human, UniProt P08637 17-208); test: as above
T8 construct: His-tagged; F158 allotype; also called FcγRIIIa-F158
T8 sequence (P08637 17-208 limits assumed): as the sequence (P08637 17-208 F176V limits assumed) above, with V160F counted along it
Experimental: as §4

[14] = target: T3, hCD64; test: SPR, antibody captured on protein A, His-tagged hCD64 as analyte; %Rmax against hCD64 concentration
Experimental: as §1

- Kd [1]: 3.2 nM
- koff [1]: 0.00064 s⁻¹
- kon [2]: 200000 M⁻¹ s⁻¹
B1: Y12XX-hz16 (antibody, human IgG1, kappa, V domains shown)
VH: QVQLVQSGAEVKKPGSSVKVSCKASGYAFTSYWMHWVRQRPGQGLEWMGFINPTTGYSEYNQKFKDRVTITADKSTSTAYMELSSLRSEDTAVYYCARWGLPPFAYWGQGTLVTVSS
VL: DIQMTQSPSFLSASVGDRVTITCKASQDVSTAVAWYQQKPGKAPKLLIYSASYRYTGVPSRFSGSGSGTDFTLTISSLQPEDFATYYCQQHYSTPWTFGGGTKVEIKR
notes: Humanized, IgG1-P238K; supernatant sample

- Inhibition of B cell proliferation induced by soluble CD40L trimer, Average (IC50 ng/ml) [3]: 6.7 ng/mL
- Potency for inhibition of CD40L expressing CHO cells stimulation of B cell proliferation (IC50 ng/ml) [4]: 38.1 ng/mL
- fold weaker binding compared to wild type (control-IgG1) [5]: 125 fold
- Kd [1]: 3.5 nM
- koff [1]: 0.00062 s⁻¹
- kon [1]: 180000 M⁻¹ s⁻¹
- Kd [6]: 3.1 nM
- koff [6]: 0.00069 s⁻¹
- kon [6]: 220000 M⁻¹ s⁻¹
- Kd [7]: 8.5 nM
- koff [7]: 0.0037 s⁻¹
- kon [7]: 440000 M⁻¹ s⁻¹
- Kd [8]: 25 nM
- Kd [9]: > 50000 nM
- Kd [10]: > 50000 nM
- Kd [11]: > 50000 nM
- Kd [12]: > 50000 nM
- Kd [13]: > 50000 nM
- EC50 (read off the curve) [14]: ~30 nM
B2: Y12XX-hz28-P238K (antibody, human IgG1, kappa)
heavy: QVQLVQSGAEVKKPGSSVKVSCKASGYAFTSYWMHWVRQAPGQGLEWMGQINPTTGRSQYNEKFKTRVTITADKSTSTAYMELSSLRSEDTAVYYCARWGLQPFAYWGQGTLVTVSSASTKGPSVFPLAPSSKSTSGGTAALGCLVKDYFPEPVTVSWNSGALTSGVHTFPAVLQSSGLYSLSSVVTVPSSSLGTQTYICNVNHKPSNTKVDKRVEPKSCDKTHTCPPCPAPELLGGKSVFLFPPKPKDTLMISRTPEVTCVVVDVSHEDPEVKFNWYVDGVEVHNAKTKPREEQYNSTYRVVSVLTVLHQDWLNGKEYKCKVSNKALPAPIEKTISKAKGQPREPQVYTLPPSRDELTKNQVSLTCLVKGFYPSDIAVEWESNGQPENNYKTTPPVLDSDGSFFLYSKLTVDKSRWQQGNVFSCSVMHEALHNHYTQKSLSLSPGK
light: DIQMTQSPSFLSASVGDRVTITCKASQDVSTAVAWYQQKPGKAPKLLIYSASYRYTGVPSRFSGSGSGTDFTLTISSLQPEDFATYYCQQHYSTPWTFGGGTKVEIKRTVAAPSVFIFPPSDEQLKSGTASVVCLLNNFYPREAKVQWKVDNALQSGNSQESVTEQDSKDSTYSLSSTLTLSKADYEKHKVYACEVTHQGLSSPVTKSFNRGEC
notes: also called Y12XX-hz28-IgG1-P238K; Y12XX-hx28-IgG1-P238K
